From PMC6779467, “Cytoplasmic protein misfolding titrates Hsp70 to activate nuclear Hsf1” (eLife, 2019) come the findings set out here.

To fix the notation:
B1: Ssa1 (6xHis-SUMO tag cleaved with Ulp1) (natural protein)
chain: not shown
notes: Hsp70 Ssa1, S. cerevisiae; Same construct as m2 after cleavage of the tag with Ulp1 SUMO protease; also called Hsp70; Hsp70 Ssa1; source: E. coli BL21-SI/pCodonPlus with pCA1026, coexpressed with Hsf1-StrepTag II and Sis1; purified (Ni-IDA, Ulp1 cleavage, Strep-Tactin Sepharose through Hsf1); not shown: 6xHis-SUMO, N-terminal, cleaved
B2: Hsf1-StrepTag II (natural protein, S. cerevisiae, UniProt P10961 1-833, looked up)
chain: MNNAANTGTTNESNVSDAPRIEPLPSLNDDDIEKILQPNDIFTTDRTDASTTSSTAIEDIINPSLDPQSAASPVPSSSFFHDSRKPSTSTHLVRRGTPLGIYQTNLYGHNSRENTNPNSTLLSSKLLAHPPVPYGQNPDLLQHAVYRAQPSSGTTNAQPRQTTRRYQSHKSRPAFVNKLWSMLNDDSNTKLIQWAEDGKSFIVTNREEFVHQILPKYFKHSNFASFVRQLNMYGWHKVQDVKSGSIQSSSDDKWQFENENFIRGREDLLEKIIRQKGSSNNHNSPSGNGNPANGSNIPLDNAAGSNNSNNNISSSNSFFNNGHLLQGKTLRLMNEANLGDKNDVTAILGELEQIKYNQIAISKDLLRINKDNELLWQENMMARERHRTQQQALEKMFRFLTSIVPHLDPKMIMDGLGDPKVNNEKLNSANNIGLNRDNTGTIDELKSNDSFINDDRNSFTNATTNARNNMSPNNDDNSIDTASTNTTNRKKNIDENIKNNNDIINDIIFNTNLANNLSNYNSNNNAGSPIRPYKQRYLLKNRANSSTSSENPSLTPFDIESNNDRKISEIPFDDEEEEETDFRPFTSRDPNNQTSENTFDPNRFTMLSDDDLKKDSHTNDNKHNESDLFWDNVHRNIDEQDARLQNLENMVHILSPGYPNKSFNNKTSSTNTNSNMESAVNVNSPGFNLQDYLTGESNSPNSVHSVPSNGSGSTPLPMPNDNDTEHASTSVNQGENGSGLTPFLTVDDHTLNDNNTSEGSTRVSPDIKFSATENTKVSDNLPSFNDHSYSTQADTAPENAKKRFVEEIPEPAIVEIQDPTEYNDHRLPKRAKK
notes: Hsf1, S. cerevisiae; HSF1 amplified with primers from the start codon to the last codon before the tag; also called Heat shock factor 1; yeast Hsf1; source: E. coli BL21-SI/pCodonPlus with pCA1026, coexpressed with 6xHis-SUMO-Ssa1 and Sis1; purified (Ni-IDA, Strep-Tactin Sepharose); not shown: Strep Tag II, C-terminal, kept

In the data set “Hsf1-StrepTag II” the target is B2. Description: pull-down; coexpression in E. coli; tandem affinity purification: Ni-IDA (6xHis-SUMO on Ssa1), Ulp1 cleavage, Strep-Tactin Sepharose (StrepTag II on Hsf1), elution with desthiobiotin; LWB150 (40 mM HEPES-KOH pH 7.5, 150 mM NaCl, 5 mM MgCl2, 5% glycerol); stoichiometry by densitometry of a Coomassie stained gel. Conditions: partners not purified.

Data set [1] concerns the molecule itself. Nature of the data set: SEC; 500 ul of 2 mg/ml purified complex on HiLoad 16/600 Superdex200 pg, 1 mL/min, LWB150.

Regarding B1, in the data set with Hsf1-StrepTag II, the “stoichiometry N” value amounted to 3 Hsf1 per Ssa1.
With B2, the binding result in data set [1] is given as “binds”.

As usually defined, the stoichiometry N is the number of molecules, sites or subunits per partner or assembly.
